# B1: Programmed cell death protein 4 (Homo sapiens), Q53EL6 (parent)
# chain: MDVENEQILNVNPADPDNLSDSLFSGDEENAGTEEIKNEINGNWISASSINEARINAKAKRRLRKNSSRDSGRGDSVSDSGSDALRSGLTVPTSPKGRLLDRRSRSGKGRGLPKKGGAGGKGVWGTPGQVYDVEEVDVKDPNYDDDQENCVYETVVLPLDERAFEKTLTPIIQEYFEHGDTNEVAEMLRDLNLGEMKSGVPVLAVSLALEGKASHREMTSKLLSDLCGTVMSTTDVEKSFDKLLKDLPELALDTPRAPQLVGQFIARAVGDGILCNTYIDSYKGTVDCVQARAALDKATVLLSMSKGGKRKDSVWGSGGGQQSVNHLVKEIDMLLKEYLLSGDISEAEHCLKELEVPHFHHELVYEAIIMVLESTGESTFKMILDLLKSLWKSSTITVDQMKRGYERIYNEIPDINLDVPHSYSVLERFVEECFQAGIISKQLRDLCPSRGRKRFVSEGDGGRLKPESY
# Variants of: B1
# Details: with if4a1_human EIF4A1, P60842
# if4a1_human EIF4A1, P60842, sequence (P60842 whole entry): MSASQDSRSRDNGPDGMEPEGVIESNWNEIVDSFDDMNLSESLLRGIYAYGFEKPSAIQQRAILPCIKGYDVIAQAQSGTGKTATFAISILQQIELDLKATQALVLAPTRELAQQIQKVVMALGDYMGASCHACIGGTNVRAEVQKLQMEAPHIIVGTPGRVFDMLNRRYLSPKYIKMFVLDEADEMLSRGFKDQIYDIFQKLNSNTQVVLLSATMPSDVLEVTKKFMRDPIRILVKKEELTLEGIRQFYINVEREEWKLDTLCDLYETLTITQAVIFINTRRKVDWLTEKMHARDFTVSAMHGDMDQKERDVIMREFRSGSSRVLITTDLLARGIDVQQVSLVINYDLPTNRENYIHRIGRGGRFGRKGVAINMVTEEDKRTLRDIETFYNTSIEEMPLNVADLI
row,Variant,effect of a mutation on the interaction
1,E249A;D253A;D414A;D418A,disrupting interaction strength

# — IntAct's records for PubMed 19204291
